Consider one substance from patent US20210401986A1.

This test concerns the target cetuximab (unconjugated anti-EGFR antibody). Kind of test: cell-based or functional assay.

In the case of “AffiniPure Donkey Anti-Human IgG, Fcγ Fragment Specific (DxHu) antibody conjugated with IRDye 700DX”, the percent cell death of BxPC3 cells (CellTox Green) after sequential labeling and 690 nm light at 16 J/cm^2 came out at 90%.
